Residue numbers refer to the chain shown, from its start.
B1: AB1370026 hIgG1 (antibody, V domains shown)
VH: EVQLVESGGGLVKPGGSLRLSCAASGFTFSSYAMSWVRQAPGKGLEWVSSISSGRSYIYYADSVKGRFTISRDNAKNSLYLKMNSLRDEDTAVYYCAREMQQLALDYWGQGTLVTVSS
VL: DIQMTQSPSSLSASVGDRVTITCRASQGISNFLAWFQQAPGKAPKSLIYAASSLQSGVPSKFSGSGSGTDFTLTISSLQPEDFATYYCQQYNSYPFTFGQGTKLEIKR
B2: AB1370035 hIgG1 (antibody, V domains shown)
VH: QVQLQQSGPGLVKPSQTLSLTCAISGDSVSSNSAAWNWIRQSPSRGLEWLGRTYYRSNWYNDYTLSVKSRITVNPDTSKNQFSLQLNSVTPEDTAVYYCVRGVGRFDSWGQGTLVTVSS
VL: DIQMTQSPSTLSASVGDRVIITCRASQSISSWLAWYQQKPGKAPKLLIYKASSLESGVPSRFSGSGSGTEFTLTITSLQPDDFASYYCQEYKTYSIFTFGPGTKVDIKR
B3: AB1370083 hIgG1 (antibody, V domains shown)
VH: EVQLVESGGGLVKPGGSLRLSCAASGFTFSSYNMNWVRQAPGKGLEWVSSISSGSSYIYYADSMKGRFTISRDNAKNSLFLQMNSLRAEDTAVYYCARGMTTLTFDYWGQGTLVTVSS
VL: B1 VL with N31T, A39K, G68E, N92I, F96L, Q100G, L104V
B4: AB1370095 hIgG1 (antibody, V domains shown)
VH: B3 VH with N33S, G54R, I58V, M64V, F80Y
VL: B1 VL with N31S, A39K, F96L, Q100G, L104V
B5: AB1370117 hIgG1 (antibody, V domains shown)
VH: QVQLQQSGPGLVKPSQTLSLTCAISGDSVSSDSATWNWIRQSPSRGLEWLGRTYYRSKWYSDYAVSVKSRITINPDTSKNQFSLQLNSVTPEDTAVYFCARGGAPFDYWGQGTLVTVSS
VL: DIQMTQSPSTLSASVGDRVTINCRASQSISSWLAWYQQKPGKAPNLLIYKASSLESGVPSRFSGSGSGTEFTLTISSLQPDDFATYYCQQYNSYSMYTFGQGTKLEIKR
B6: AB1370049 hIgG1 (antibody, V domains shown)
VH: B5 VH with Q1L, S61N, F98Y, G103V, A104G, P105S
VL: not shown
B7: AB1370026 (hybridoma IgG) (antibody, V domains shown)
VH: B1 VH
VL: DIQMTQSPSSLSASVGDRVTITCRASQGISNFLAWFQQAPGKAPKSLIYAASSLQSGVPSKFSGSGSGTDFTLTISSLQPEDFATYYCQQYNSYPFTFGQGTKLEIK
notes: IgG from hybridoma of Del-1 humanised mouse, tested as supernatant ('mouse IgG', detected with anti-mouse IgG) or Phynexus purified
B8: AB1370083 (hybridoma IgG) (antibody, V domains shown)
VH: B3 VH
VL: B7 VL with N31T, A39K, G68E, N92I, F96L, Q100G, L104V
notes: as for B7
B9: AB1370095 (hybridoma IgG) (antibody, V domains shown)
VH: B3 VH with N33S, G54R, I58V, M64V, F80Y
VL: B7 VL with N31S, A39K, F96L, Q100G, L104V
notes: as for B7
B10: AB1370117 (hybridoma IgG) (antibody, V domains shown)
VH: B5 VH
VL: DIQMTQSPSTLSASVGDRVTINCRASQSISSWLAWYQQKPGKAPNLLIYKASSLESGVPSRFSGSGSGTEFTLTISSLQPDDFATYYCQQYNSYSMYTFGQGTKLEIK
notes: as for B7
B11: AB1370035 (hybridoma IgG) (antibody, V domains shown)
VH: B2 VH
VL: DIQMTQSPSTLSASVGDRVIITCRASQSISSWLAWYQQKPGKAPKLLIYKASSLESGVPSRFSGSGSGTEFTLTITSLQPDDFASYYCQEYKTYSIFTFGPGTKVDIK
notes: as for B7
B12: AB1370049 (hybridoma IgG) (antibody, V domains shown)
VH: B5 VH with Q1L, S61N, F98Y, G103V, A104G, P105S
VL: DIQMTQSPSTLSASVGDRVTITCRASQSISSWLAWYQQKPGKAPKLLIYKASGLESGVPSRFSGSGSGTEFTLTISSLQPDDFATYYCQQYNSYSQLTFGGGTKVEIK
notes: as for B7

molecular target: T1, Human FRα ECD-Avi-His (human, biotin on the Avi-tag (BirA) in the HTRF assays); test: SPR (Biacore T200, 25°C); antibody captured on Protein A, FRα ECD as analyte
T1 construct: also called biotinylated human FRα; folate receptor alpha
T1 sequence (chain, as listed by the source limits assumed): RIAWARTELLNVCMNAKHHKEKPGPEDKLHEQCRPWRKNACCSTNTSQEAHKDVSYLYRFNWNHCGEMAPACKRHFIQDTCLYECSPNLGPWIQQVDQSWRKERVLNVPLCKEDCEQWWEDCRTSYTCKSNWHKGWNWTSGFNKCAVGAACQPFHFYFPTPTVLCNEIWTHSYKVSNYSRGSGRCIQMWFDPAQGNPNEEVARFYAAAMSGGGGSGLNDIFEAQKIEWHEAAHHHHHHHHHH
Description: (§1) Protein A was covalently immobilised to a CM5 chip surface using standard amine coupling techniques at a concentration of 50 μg/ml in 10 mM Sodium acetate, pH 4.0. The antibody was captured onto the Protein A surface in HBS-EP+ buffer, pH 7.4 at 10 μl/min to enable FRα ECD binding. The FRα ECD was serially diluted (0.4 nM-100 nM human FRα ECD; 0.8 nM-200 nM cyno FRα ECD; 30 nM-4000 nM mouse FRα ECD and rat FRα ECD) in HBS-EP+ buffer, pH 7.4 and flowed over the chip at 50 μl/min, with 2 minutes association and 8 minutes dissociation. The chip surface was fully regenerated with pulses of 3 M MgCl₂ to remove captured antibody together with any bound FRα ECD. Multiple buffer-only injections were made under the same conditions to allow for double reference subtraction of the final sensorgram sets, which were analysed using Biacore T200 Evaluation Software to derive equilibrium dissociation constants.

| Binder | Kd [nM] | koff [s⁻¹] | kon [M⁻¹ s⁻¹] |
| --- | --- | --- | --- |
| B1 | 1.3 | 0.000354 | 279000 |
| B2 | 0.93 | 0.000527 | 568000 |
| B3 | 0.93 | 0.000135 | 145000 |
| B4 | 13.5 | 0.00129 | 95700 |
| B5 | 2.6 | 0.000762 | 293000 |

molecular target: T2, Cyno FRα ECD-Avi-His (cynomolgus monkey, biotin on the Avi-tag (BirA) in the HTRF assays); test: as above
T2 construct: Soluble region with C-terminal Avi and His tags
T2 sequence (chain, as listed by the source limits assumed): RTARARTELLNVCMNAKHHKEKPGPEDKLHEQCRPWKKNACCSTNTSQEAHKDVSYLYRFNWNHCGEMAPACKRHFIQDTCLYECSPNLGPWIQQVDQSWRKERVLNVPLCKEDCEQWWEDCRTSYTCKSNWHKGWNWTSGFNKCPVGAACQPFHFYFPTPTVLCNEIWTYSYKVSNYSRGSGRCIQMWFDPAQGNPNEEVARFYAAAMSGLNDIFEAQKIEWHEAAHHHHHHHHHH
Description: as §1

| Binder | Kd [nM] | koff [s⁻¹] | kon [M⁻¹ s⁻¹] |
| --- | --- | --- | --- |
| B1 | 1.8 | 0.000342 | 195000 |
| B2 | 1.1 | 0.000508 | 475000 |
| B3 | 1.56 | 0.00016 | 101000 |
| B4 | 19.1 | 0.00183 | 95800 |
| B5 | 5.1 | 0.00187 | 364000 |
| B6 | 36.9 |  |  |

molecular target: T1, Human FRα ECD-Avi-His; test: HTRF epitope competition assay, geomean n>2; competitor DyLight 650 labelled Comparator Antibody 1
Description: (§2) HTRF assays were performed in 384-well white shallow well non-binding plates (Corning, 4513) in assay buffer containing phosphate-buffered saline (PBS) (Life Technologies, 14190), 0.100 v/v bovine serum albumin (BSA) (Sigma, A9576), and 0.4 M potassium fluoride (VWR International, 26820).
(§3) HTRF epitope competition assays were set up using a titration of test IgG, 1 nM streptavidin cryptate, biotinylated human FRα and DyLight 650 labelled IgG to assay volume of 10 μl. […] Assay plates were incubated for 3-4 h at room temperature prior to fluorescence measurement.

| Binder | IC50 [nM] |
| --- | --- |
| B1 | 0.032 |
| B3 | 0.0296 |
| B4 | 0.363 |

molecular target: T1, Human FRα ECD-Avi-His; test: HTRF epitope competition assay, geomean n>2; competitor DyLight 650 labelled Comparator Antibody 3
Description: as §2, §3

| Binder | IC50 [nM] |
| --- | --- |
| B2 | 0.285 |
| B5 | 1.83 |

molecular target: T1, Human FRα ECD-Avi-His; test: HTRF epitope competition assay, geomean n>2; competitor DyLight 650 labelled Comparator Antibody 2
Description: as §2, §3

| Binder | IC50 [nM] |
| --- | --- |
| B1 | 0.177 |
| B2 | 1.46 |
| B3 | 0.0806 |
| B4 | 4.15 |
| B5 | 9.33 |

molecular target: T1, Human FRα ECD-Avi-His; test: MOv19 HTRF epitope competition assay, geomean; IgG kept 2 weeks at 4°C; competitor MOv19

| Binder | IC50 [nM] |
| --- | --- |
| B1 | 0.711 |
| B2 | 0.945 |
| B3 | 0.0511 |
| B4 | 5.07 |
| B5 | 3.75 |

molecular target: T2, Cyno FRα ECD-Avi-His; test: SPR (Biacore T200)
Description: as §1

| Binder | fold difference of affinity, cyno FRα against human FRα [fold] |
| --- | --- |
| B1 | ≤ 2.5 |
| B2 | ≤ 2.5 |
| B3 | ≤ 2.5 |
| B4 | ≤ 2.5 |
| B5 | ≤ 2.5 |

molecular target: T1, Human FRα ECD-Avi-His; test: MOv19 HTRF epitope competition assay, geomean; IgG kept 2 weeks at 45°C; competitor MOv19

| Binder | IC50 [nM] |
| --- | --- |
| B1 | 0.708 |
| B2 | 1.16 |
| B3 | 0.0665 |
| B4 | 4.31 |
| B5 | 5.48 |

molecular target: T1, Human FRα ECD-Avi-His; test: MOv19 HTRF epitope competition assay; accelerated stability study

| Binder | fold difference (IC50 45°C against 4°C) [fold] |
| --- | --- |
| B1 | 1 |
| B2 | 1.23 |
| B3 | 1.3 |
| B4 | 0.85 |
| B5 | 1.46 |

molecular target: T3, Mouse FRα ECD-Avi-His (mouse, biotin on the Avi-tag (BirA) in the HTRF assays); test: HTRF antigen binding assay; hybridoma supernatant, 1 nM biotinylated antigen
T3 construct: Soluble region with C-terminal Avi and His tags
T3 sequence (chain, as listed by the source limits assumed): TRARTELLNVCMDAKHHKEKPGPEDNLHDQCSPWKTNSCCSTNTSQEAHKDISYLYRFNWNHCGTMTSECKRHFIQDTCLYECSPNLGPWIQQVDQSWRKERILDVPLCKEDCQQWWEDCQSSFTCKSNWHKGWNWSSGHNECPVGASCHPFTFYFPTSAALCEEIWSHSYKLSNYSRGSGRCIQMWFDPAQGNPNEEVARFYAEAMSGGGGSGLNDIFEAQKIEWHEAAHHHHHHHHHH
Description: as §2
(§4) Supernatants containing mouse IgG from hybridoma cells were incubated at a final assay dilution of 25% with 0.5 nM streptavidin-cryptate (CisBio, 610SAKLB), anti-mouse IgG AF647 (Jackson ImmunoResearch, 115-605-164) and 1 nM biotinylated human FRα, cyno FRα, mouse FRα, human FRβ or human FRγ to give a final assay volume of 10 μl, for 4 hours at room temperature before fluorescence was measured.

| Binder | binding result |
| --- | --- |
| B7 | no binding |
| B8 | no binding |
| B9 | no binding |
| B10 | no binding |
| B11 | no binding |
| B12 | no binding |

molecular target: T4, Human FRβ ECD-Avi-His (human, biotin on the Avi-tag (BirA) in the HTRF assays); test: as above
T4 construct: Soluble region with C-terminal Avi and His tags; also called Human FRß
T4 sequence (chain, as listed by the source limits assumed): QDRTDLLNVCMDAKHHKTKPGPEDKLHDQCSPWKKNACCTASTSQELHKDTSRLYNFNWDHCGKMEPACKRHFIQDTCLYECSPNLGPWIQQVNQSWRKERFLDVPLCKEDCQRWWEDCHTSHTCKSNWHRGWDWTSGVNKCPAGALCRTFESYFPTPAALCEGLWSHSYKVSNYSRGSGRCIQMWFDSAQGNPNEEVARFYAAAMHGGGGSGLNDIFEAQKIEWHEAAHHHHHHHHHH
Description: as §2, §4

| Binder | binding result |
| --- | --- |
| B7 | no binding |
| B8 | no binding |
| B9 | no binding |
| B10 | no binding |
| B11 | no binding |
| B12 | no binding |

molecular target: T5, Human FRγ ECD-Avi-His (human, biotin on the Avi-tag (BirA) in the HTRF assays); test: as above
T5 construct: Soluble region with C-terminal Avi and His tags
T5 sequence (chain, as listed by the source limits assumed): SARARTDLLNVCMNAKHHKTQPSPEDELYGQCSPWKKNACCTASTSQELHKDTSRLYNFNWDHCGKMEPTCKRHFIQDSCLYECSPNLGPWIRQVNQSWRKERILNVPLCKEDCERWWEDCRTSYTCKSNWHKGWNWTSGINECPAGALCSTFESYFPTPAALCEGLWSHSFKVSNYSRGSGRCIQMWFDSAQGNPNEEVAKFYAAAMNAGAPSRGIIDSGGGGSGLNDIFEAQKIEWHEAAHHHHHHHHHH
Description: as §2, §4

| Binder | binding result |
| --- | --- |
| B7 | no binding |
| B8 | no binding |
| B9 | no binding |
| B10 | no binding |
| B11 | no binding |
| B12 | no binding |
